Earlier results on one substance are cited in paper PMC6325607.

This series concerns Cys149.

As to “Cytosolic glyceraldehyde-3-phosphate dehydrogenase (GAPDH) (Arabidopsis thaliana)”, the pKa was 5.65.
